Measured values reported in PMC10413350, “Kinetic and structural characterization of carboxyspermidine dehydrogenase of polyamine biosynthesis” (The Journal of Biological Chemistry, 2023).

Columns and labels:
[1] = molecular target: T1, BfCASDH (Bacteroides fragilis, UniProt I9VY56); test: intrinsic tryptophan fluorescence quenching (ex […] nm, em […] nm), sigmoidal fit; assay type: binding
T1 construct: gene HMPREF1080_01141; full length (397 residues modelled per chain), N-terminal hexahistidine tag kept, pET-28b, E. coli BL21 (DE3)
T1 sequence (I9VY56 1-397): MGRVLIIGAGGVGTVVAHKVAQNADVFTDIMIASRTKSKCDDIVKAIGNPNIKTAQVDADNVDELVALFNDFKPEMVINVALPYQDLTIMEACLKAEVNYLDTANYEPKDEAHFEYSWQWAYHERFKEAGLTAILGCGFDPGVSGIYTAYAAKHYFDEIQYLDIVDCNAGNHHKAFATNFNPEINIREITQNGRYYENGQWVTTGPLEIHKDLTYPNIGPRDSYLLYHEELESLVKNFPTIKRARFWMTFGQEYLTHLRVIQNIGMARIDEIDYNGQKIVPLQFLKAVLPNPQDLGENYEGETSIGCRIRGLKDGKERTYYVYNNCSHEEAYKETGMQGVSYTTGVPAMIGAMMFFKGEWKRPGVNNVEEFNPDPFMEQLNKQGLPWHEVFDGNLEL

[2] = molecular target: Bacteroides fragilis carboxyspermidine dehydrogenase (Bacteroides fragilis); test: SEC; HiLoad 16/600 Superdex 200, 25 mM Tris pH 8; 100 ul of 10 mg/ml (BfCASDH) or 5 mg/ml (ClCASDH) injected
[3] = molecular target: Clostridium leptum carboxyspermidine dehydrogenase (Clostridium leptum); test: as above
[4] = substrate: NC(=O)C1=CN([C@@H]2O[C@H](COP(=O)(O)OP(=O)(O)OC[C@H]3O[C@@H](n4cnc5c(N)ncnc54)[C@H](OP(=O)(O)O)[C@@H]3O)[C@@H](O)[C@H]2O)C=CC1; test: purified protein; assay type: biochemical, [Clostridium] leptum; details: apparent, 2.5 mM ASA (subsaturating), 20 mM putrescine, 25 mM Tris pH 7.5, varied: cofactor
[5] = substrate: NCCCCN; test: purified protein; assay type: biochemical, [Clostridium] leptum; details: apparent, 2.5 mM ASA (subsaturating), 150 uM NADPH, 25 mM Tris pH 7.5
[6] = substrate: NCCCN; test: purified protein; assay type: biochemical, [Clostridium] leptum; details: apparent, 2.5 mM ASA (subsaturating), 150 uM NADPH, 25 mM Tris pH 7.5
[7] = substrate: NC(=O)C1=CN([C@@H]2O[C@H](COP(=O)(O)OP(=O)(O)OC[C@H]3O[C@@H](n4cnc5c(N)ncnc54)[C@H](OP(=O)(O)O)[C@@H]3O)[C@@H](O)[C@H]2O)C=CC1; test: purified protein; assay type: biochemical, Bacteroides fragilis; details: apparent, 2.5 mM ASA (subsaturating), 20 mM putrescine, 25 mM potassium phosphate pH 7.5, varied: cofactor
[8] = substrate: NCCCCN; test: purified protein; assay type: biochemical, Bacteroides fragilis; details: apparent, from Hill equation (half-saturation), 2.5 mM ASA (subsaturating), 150 uM NADPH, 25 mM potassium phosphate pH 7.5
[9] = substrate: NCCCN; test: purified protein; assay type: biochemical, Bacteroides fragilis; details: apparent, from Hill equation (half-saturation), 2.5 mM ASA (subsaturating), 150 uM NADPH, 25 mM potassium phosphate pH 7.5
[10] = substrate: N[C@@H](CC=O)C(=O)O; test: purified protein; assay type: biochemical, Bacteroides fragilis; details: apparent, from Hill equation (half-saturation), 20 mM putrescine, 150 uM NADPH, 25 mM potassium phosphate pH 7.5, substrate inhibition above 2.5 mM

Molecule: NCCCN [DAP]
- Kd [1]: 15 ± 2 mM

Molecule: NCCCCN [putrescine]
- Kd [1]: 11 ± 1 mM

Molecule: Bacteroides fragilis carboxyspermidine dehydrogenase (enzyme)
- stoichiometry N [2]: 2

Molecule: Clostridium leptum carboxyspermidine dehydrogenase (enzyme)
- stoichiometry N [3]: 2

B1: ClCASDH ([Clostridium] leptum DSM 753) (protein)
chain: MGKALIIGCGGVASVAIHKCCQNSGVFEEICIASRTKSKCDALKEKLSGGKTKITTAQVDANSVDELTALINQVKPDVVLNLALPYQDLTIMEACLAAKVNYVDTANYEPEDTAKFEYSWQWAYRKKFEDAGITALLGSGFDPGVTGVFSAYAQKHYFDEINYIDILDCNAGDHGYPFATNFNPEINIREVSAKGSYWEDGHWVETEPMEIKRVYNFPEIGDKDMYLLHHEELESLALNIKGIKRIRFFMTFGQSYLTHLKCLEDVGMTSIEPIEFQGQQIVPLQFLKAVLPDPSSLGPRTKGKTNIGCIFQGKKDGKDKTYYVYNVCDHQECYKEVGSQAVAYTTGVPAMIGAMMLMTGVWNKPGVHNIEEFDPDPFMDALNKWGLPWKESFSPELVD
notes: full length, N-terminal hexahistidine tag, pET-28b, E. coli BL21 (DE3)
- Km [4]: 0.016 ± 0.002 mM
- kcat [4]: 0.22 ± 0.02 s⁻¹
- kcat/Km [4]: 13800 ± 900 M⁻¹ s⁻¹
- Km [5]: 5.0 ± 0.6 mM
- kcat [5]: 0.37 ± 0.01 s⁻¹
- kcat/Km [5]: 74 ± 10 M⁻¹ s⁻¹
- Km [6]: 6.9 ± 1.1 mM
- kcat [6]: 0.49 ± 0.03 s⁻¹
- kcat/Km [6]: 71 ± 12 M⁻¹ s⁻¹

B2: BfCASDH (Bacteroides fragilis CL05T12C13) (protein)
chain: MGRVLIIGAGGVGTVVAHKVAQNADVFTDIMIASRTKSKCDDIVKAIGNPNIKTAQVDADNVDELVALFNDFKPEMVINVALPYQDLTIMEACLKAEVNYLDTANYEPKDEAHFEYSWQWAYHERFKEAGLTAILGCGFDPGVSGIYTAYAAKHYFDEIQYLDIVDCNAGNHHKAFATNFNPEINIREITQNGRYYENGQWVTTGPLEIHKDLTYPNIGPRDSYLLYHEELESLVKNFPTIKRARFWMTFGQEYLTHLRVIQNIGMARIDEIDYNGQKIVPLQFLKAVLPNPQDLGENYEGETSIGCRIRGLKDGKERTYYVYNNCSHEEAYKETGMQGVSYTTGVPAMIGAMMFFKGEWKRPGVNNVEEFNPDPFMEQLNKQGLPWHEVFDGNLEL
notes: full length (397 residues modelled per chain), N-terminal hexahistidine tag kept, pET-28b, E. coli BL21 (DE3)
- Km [7]: 0.057 ± 0.003 mM
- kcat [7]: 0.39 ± 0.05 s⁻¹
- kcat/Km [7]: 6700 ± 200 M⁻¹ s⁻¹
- K0.5 [8]: 4.2 ± 0.3 mM
- kcat [8]: 0.41 ± 0.02 s⁻¹
- kcat/Km [8]: 96 ± 7 M⁻¹ s⁻¹
- K0.5 [9]: 19.7 ± 3.6 mM
- kcat [9]: 0.34 ± 0.03 s⁻¹
- kcat/Km [9]: 17 ± 3 M⁻¹ s⁻¹
- K0.5 [10]: 2.7 ± 0.1 mM
- kcat [10]: 0.64 ± 0.02 s⁻¹
- kcat/Km [10]: 230 ± 15 M⁻¹ s⁻¹
